3 molecules from patent US20120071629A1, “APPOPTOSIN AND USES THEREOF FOR TREATING NEURODEGENERATIVE DISEASE AND CANCER” (Tsinghua University, priority 2006, published 2012) can be followed below.

In series [1] the test system is N2a cells. The experiment in a line: BH3I- and staurosporine-induced caspase 3 cleavage/activation. It is filed as cell-based. The protocol: N2a cells were first subjected to downregulation of 168 by RNAi, and were then treated with apoptotic reagents BH3I and staurosporine. […] In addition, 168 is subjected to cleavage under apoptotic treatments (indicated by *).

The target of series [2] is T1, APP-AICD (AID) (Homo sapiens, UniProt P05067).
T1 construct: The intracellular end of human APP was amplified, i.e., AID, was amplified; expressed in transfected cells; host or cells: yeast AH109
The experiment in a line: Yeast two-hybrid assay with quantitative β-galactosidase activity. It is filed as binding. Particulars: yeast AH109 co-transfected with pGBKT7-AID; ONPG substrate. An excerpt:
The interaction of AICD-Ga14 activation domain (AD) with 168(264-304) fragment-DNA binding domain (DBD) activates GAL4-driven beta-galactosidase expression in yeast.
The intracellular end of human APP was amplified, i.e., AID, was amplified. In order to completely expose AID, 5 amino acids of Aβ and […] (SEQ ID NO:9) were extended in front of AID. The PCR product was recovered and purified. It was then inserted into protein expression vector pGBKT7 for identification by means of sequencing. The successfully constructed vector is named pGBKT7-AID. Positively identified pGBKT7-AID was transferred into yeast AH109, and then cultured on a SD/-Trp plate. […]
Screening and Identification of Positive Clones: Yeast expression vector pGBKT7 contained the autocrine gene of Trp (tryptophan) and the DNA binding domain of GAL4. pACT2 contained the autocrine gene of Leu (leucine) and the DNA activation structure domain. […] The results were compared and analyzed against information available in GenBank.
Quantitative Analysis of β-galactosidase Activity: Yeast co-transfected positive clones grown on the plate were picked and cultured further in a SD/Leu/-Trp liquid culture medium at 30° C. overnight. […] The solution was centrifuged and the supernatant was taken to measure its absorbance at 420 nm to calculate its β-galactosidase activity. […]

Series [3] has as its target T2, APP (Homo sapiens, UniProt P05067).
T2 construct: expressed in transfected cells; host or cells: 293T cells
The experiment in a line: Anti-APP (369) IP and anti-myc Western blot in co-transfected 293T cells. The format is binding. As to conditions: myc-168 or deletion mutants co-transfected with APP into 293T cells. An excerpt: Protein expressions are shown in the middle and lower panels.
Deletion mutants of myc-168 and APP were co-transfected into 293T cells and cell lysates subjected to anti-APP (369) IP and anti-myc WB to detect 168-APP interaction (upper panel).
In general terms: A western blot detects proteins with antibodies after separation by electrophoresis.

The target of series [4] is T3, APP-AICD(C99) (Homo sapiens, UniProt P05067).
T3 construct: Deletion mutants of HA-168 and myc-tagged APP-AICD(C99) were co-transfected into 293T cells; myc; expressed in transfected cells; host or cells: 293T cells
The series can be described thus: Anti-myc IP and anti-HA Western blot in co-transfected 293T cells. It is filed as binding. An excerpt: IP-WB the minimal domain of 168 to interact with AICD is 118-264AA. Deletion mutants of HA-168 and myc-tagged APP-AICD(C99) were co-transfected into 293T cells and cell lysates subjected to anti-myc IP and anti-HA WB to detect 168-APP interaction (upper panel). Protein expressions are shown in the middle and lower panels.

Series [5] relates to 239T cells. The series can be described thus: Apoptosis by annexin V/PI double staining after 168 expression. The format is cell-based.
Series [6] has as its system 293T cells. The experiment in a line: Cytochrome c release from mitochondria, immunoblotting of mitochondria and cytosol. Particulars: 293T cells transfected with 168. The format is cell-based. An excerpt: Mitochrondia and cytosol were isolated from 293T cells transfected with 168 and subjected to immunoblotting with different antibodies: Tubulin serves as a cytosol marker and CoxIV as a mitochondrial marker.

The subject of series [7] is mitochondrial membrane potential. The experiment in a line: Mitochondrial membrane potential after 168 expression. The format is cell-based. An excerpt: MCCP: an ionophore to disrupt proton gradient used as a positive control to decrease mitochondrial membrane potential.
The subject of series [8] is N2a cells stably expressing human APP695. The series can be described thus: Aβ generation and APP metabolism, IP and Western blot. It is filed as cell-based. An excerpt: (§1) N2a cells stably expressing human APP695 were transfected with NotchΔE-myc(Notch lacking its ectodomain and carrying a myc tag at its C-terminus) for 1 day. Cells were split equally and transfected with 168 with different dosage for 2 days. Conditional media were collected for sAPPα and secretary Aβ assays. Cells were lysed in 6% SDS and assayed for Notch/NICD conversion and APP metabolism. 168/FLJ20551 and Notch/NICD were detected using myc antibody 9E10. APP AICD was detected using APP C-terminus antibody 369. APP βCTFs, intracellular Aβ, and secretary Aβ in conditional media were immunoprecipitated using antibody 4G8 and detected using antibody 6E10. Soluble APPα were detected using 6E10. α-tubulin was used as control.

Series [9] concerns Notch. The series can be described thus: Notch/NICD conversion, Western blot. It is filed as cell-based. As to conditions: overexpression of 168; NotchΔE-myc transfected N2a cells; ratios of NICD to Notch.
Description: as §1

The test system of series [10] is N2a cells stably expressing human APP Swedish mutations. The experiment in a line: Aβ40 generation, IP and urea gel. As to conditions: overexpression of 168, 2 days, secreted Aβ in conditional media. The format is cell-based. How it is done:
N2a cells stably expressing human APP Swedish mutations were transfected with 168 for 2 days. Secretary Aβ in conditional media were immunoprecipitated using antibody 4G8 and detected using antibody 6E10. The samples were analyzed using Urea gel, which can differentiate variant Aβ species.

The subject of series [11] is mouse fibroblast cells. The experiment in a line: 168-mediated apoptosis in APP WT and APP/APLP2 DKO cells, annexin V/PI double staining. It is filed as cell-based. Particulars: mouse fibroblast cells transfected with 168. An excerpt: APP wild type (WT) and APP/APLP2 double knockout (DKO) mouse fibroblast cells were transfected with control (vector) or 168.

Take `CN[C@@H]1C[C@H]2O[C@@](C)([C@@H]1OC)n1c3ccccc3c3c4c(c5c6ccccc6n2c5c31)C(=O)NC4` [staurosporine]: the “caspase 3 cleavage for activation upon apoptotic treatment” value in series [1] was “cleaved”.

B1: 168: Appoptosin polypeptide; human amino acid sequence SEQ ID NO:2; expressed in cells by transfection (protein)
chain: MIQNSRPSLLQPQDVGDTVETLMLHPVIKAFLCGSISGTCSTLLFQPLDLLKTRLQTLQPSDHGSRRVGMLAVLLKVVRTESLLGLWKGMSPSIVRCVPGVGIYFGTLYSLKQYFLRGHPPTALESVMLGVGSRSVAGVCMSPITVIKTRYESGKYGYESIYAALRSIYHSEGHRGLFSGLTATLLRDAPFSGIYLMFYNQTKNIVPHDQVDATLIPITNFSCGIFAGILASLVTQPAGVIKTHMQLYPLKFQWIGQAVTLIFKDYGLRGFFQGGIPRALRRTLMAAMAWTVYEEMMAKMGLKS
modifications: Description of Artficial Sequence note = synthetic construct
notes: Appoptosin polypeptide; expressed in cells by transfection
On to B1, for which, in series [2], the “intensity of interaction with AID (bait protein) by β-galactosidase activity” value is “fairly intense”. In addition, the “interaction with APP in IP-WB” value in [3] is reported as “interacts”. In addition, in [4] (HA-168 deletion mutants and myc-tagged C99 co-transfected into 293T cells), the “interaction with APP-AICD(C99) in cells” value was “interacts”. The “minimal domain of 168 to interact with AICD” value in series [4] (IP-WB) was 118-264AA. For the same molecule, the apoptosis result in [5] is given as “induces apoptosis”. The “cytochrome c release from mitochondria” value in series [6] is “induces cytochrome c release”. Besides, the mitochondrial membrane potential result in series [7] is recorded as “decrease”. Further, the sAPPα entry in series [8] (overexpression of 168, conditional media) is “slightly increases”. Besides, in series [8] (overexpression of 168, different dosage, 2 days), the Aβ generation entry was “inhibits Aβ generation in a dose-dependent manner”. Besides, in [9], the “conversion of Notch to NICD” value is “does not affect”. In addition, in [10], the Aβ40 generation entry was “reduces Aβ40 generation in a dose-dependent manner”. Moreover, the “168-induced cell apoptosis in APP/APLP2 DKO cells compared with APP WT cells” value in series [11] was “dramatically less”.

B2: 118-304AA: deletion mutant of myc-168, amino acids 118-304 (protein)
chain: GHPPTALESVMLGVGSRSVAGVCMSPITVIKTRYESGKYGYESIYAALRSIYHSEGHRGLFSGLTATLLRDAPFSGIYLMFYNQTKNIVPHDQVDATLIPITNFSCGIFAGILASLVTQPAGVIKTHMQLYPLKFQWIGQAVTLIFKDYGLRGFFQGGIPRALRRTLMAAMAWTVYEEMMAKMGLKS
modifications: left off: small tags and cut ends
With B2, the “interaction with APP in IP-WB” value in series [3] is “still detected”.
